The values that follow come from the supplement of paper PMC5998384.

Data set [1] deals with HeLa Kyoto. Put plainly: solubility change mitosis vs G1/S (difference of NP-40 vs SDS log2 ratios) (log2 ratio difference); higher = more soluble in mitosis.
The subject of data set [2] is HeLa Kyoto. As to the kind of experiment: solubility in G1/S (NP-40 vs SDS abundance) (log2 ratio); higher = more soluble. The conditions noted are these: cell cycle stage: G1/S.
The test system of data set [3] is HeLa Kyoto. Put plainly: melting temperature (median over replicates), in situ; higher = more thermally stable.
Data set [4] concerns HeLa Kyoto. As to the kind of experiment: thermal stability score vs G1/S (z-score of summed log2 fold changes over temperatures); higher = more thermally stable than in G1/S.
[5] abbreviates: cell cycle stage: early G1 (4.5 h after nocodazole release).
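For melting temperature (median over replicates), in situ in this document: HeLa Kyoto cells synchronized by double thymidine or nocodazole block, proteins quantified by TMT10plex mass spectrometry, three independent biological replicates.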
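For solubility change mitosis vs G1/S (difference of NP-40 vs SDS log2 ratios) in this document: synchronized HeLa Kyoto cells (double thymidine block for G1/S, nocodazole release for mitosis), protein amounts in NP-40 versus SDS lysates quantified by mass spectrometry, three biological replicates.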
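For solubility in G1/S (NP-40 vs SDS abundance) in this document: HeLa Kyoto cells arrested at G1/S by double thymidine block, proteins quantified by TMT10plex mass spectrometry in mild NP-40 versus SDS extracts, three biological replicates.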
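For thermal stability score vs G1/S (z-score of summed log2 fold changes over temperatures) in this document: synchronized HeLa Kyoto cells, proteins quantified by TMT10plex mass spectrometry, three biological replicates, mitosis taken 0.5 h after nocodazole release, G1/S directly after double thymidine block.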

“MLPLLRCVPRVLGSSVAGLRAAAPASPFRQLLQPAPRLCTRPFGLLSVRAGSERRPGLLRPRGPCACGCGCGSLHTDGDKAFVDFLSDEIKEERKIQKHKTLPKMSGGWELELNGTEAKLVRKVAGEKITVTFNINNSIPPTFDGEEEPSQGQKVEEQEPELTSTPNFVVEVIKNDDGKKALVLDCHYPEDEVGQEDEAESDIFSIREVSFQSTGESEWKDTNYTLNTDSLDWALYDHLMDFLADRGVDNTFADELVELSTALEHQEYITFLEDLKSFVKSQ [C1QBP]”: the “solubility change mitosis (log2)” value in the data set on HeLa Kyoto [1] was found to be 0.179. Besides, the “solubility in G1/S (log2)” value with HeLa Kyoto [2] turned out to be 0.515. The melting temperature was found to be 52.6 °C with HeLa Kyoto [3] (cell cycle stage: G1/S) and 52 °C with HeLa Kyoto [3] (cell cycle stage: mitosis). In addition, the thermal stability score in the data set with HeLa Kyoto [4] (setting [5]) is -1.11; in the data set with HeLa Kyoto [4] (cell cycle stage: mitosis), -3.14.

As to “MLPLSLLKTAQNHPMLVELKNGETYNGHLVSCDNWMNINLREVICTSRDGDKFWRMPECYIRGSTIKYLRIPDEIIDMVKEEVVAKGRGRGGLQQQKQQKGRGMGGAGRGVFGGRGRGGIPGTGRGQPEKKPGRQAGKQ [LSM4]”, the “solubility change mitosis (log2)” value with HeLa Kyoto [1] amounted to 0.187. Moreover, the “solubility in G1/S (log2)” value in the data set with HeLa Kyoto [2] is 0.0844. Also, the melting temperature in the data set with HeLa Kyoto [3] (cell cycle stage: G1/S) was 58.1 °C; with HeLa Kyoto [3] (cell cycle stage: mitosis), 54.6 °C. Further, the figures for the thermal stability score with HeLa Kyoto [4] (setting [5]) and in the data set with HeLa Kyoto [4] (cell cycle stage: mitosis) were -3.84 and -4.06, respectively.

Consider “MLQTLYDYFWWERLWLPVNLTWADLEDRDGRVYAKASDLYITLPLALLFLIVRYFFELYVATPLAALLNIKEKTRLRAPPNATLEHFYLTSGKQPKQVEVELLSRQSGLSGRQVERWFRRRRNQDRPSLLKKFREASWRFTFYLIAFIAGMAVIVDKPWFYDMKKVWEGYPIQSTIPSQYWYYMIELSFYWSLLFSIASDVKRKDFKEQIIHHVATIILISFSWFANYIRAGTLIMALHDSSDYLLESAKMFNYAGWKNTCNNIFIVFAIVFIITRLVILPFWILHCTLVYPLELYPAFFGYYFFNSMMGVLQLLHIFWAYLILRMAHKFITGKLVEDERSDREETESSEGEEAAAGGGAKSRPLANGHPILNNNHRKND [CERS2]”, for which the “solubility change mitosis (log2)” value in the data set with HeLa Kyoto [1] is -0.158. In the data set on HeLa Kyoto [2], the “solubility in G1/S (log2)” value is 0.0784. The melting temperature with HeLa Kyoto [3] (cell cycle stage: G1/S) was found to be 52.7 °C; in the data set on HeLa Kyoto [3] (cell cycle stage: mitosis), 52.9 °C. In addition, the thermal stability score with HeLa Kyoto [4] (setting [5]) was -0.502; in the data set with HeLa Kyoto [4] (cell cycle stage: mitosis), -0.489.

For “MLRAPGCLLRTSVAPAAALAAALLSSLARCSLLEPRDPVASSLSPYFGTKTRYEDVNPVLLSGPEAPWRDPELLEGTCTPVQLVALIRHGTRYPTVKQIRKLRQLHGLLQARGSRDGGASSTGSRDLGAALADWPLWYADWMDGQLVEKGRQDMRQLALRLASLFPALFSRENYGRLRLITSSKHRCMDSSAAFLQGLWQHYHPGLPPPDVADMEFGPPTVNDKLMRFFDHCEKFLTEVEKNATALYHVEAFKTGPEMQNILKKVAATLQVPVNDLNADLIQVAFFTCSFDLAIKGVKSPWCDVFDIDDAKVLEYLNDLKQYWKRGYGYTINSRSSCTLFQDIFQHLDKAVEQKQRSQPISSPVILQFGHAETLLPLLSLMGYFKDKEPLTAYNYKKQMHRKFRSGLIVPYASNLIFVLYHCENAKTPKEQFRVQMLLNEKVLPLAYSQETVSFYEDLKNHYKDILQSCQTSEECELARANSTSDEL [MINPP1]”, the “solubility change mitosis (log2)” value with HeLa Kyoto [1] is -0.069. In addition, the “solubility in G1/S (log2)” value in the data set with HeLa Kyoto [2] came to 0.459. Besides, the melting temperature amounted to 54.4 °C with HeLa Kyoto [3] (cell cycle stage: G1/S) and 55.7 °C with HeLa Kyoto [3] (cell cycle stage: mitosis). For the same sequence, the thermal stability score with HeLa Kyoto [4] (setting [5]) is 4.83; with HeLa Kyoto [4] (cell cycle stage: mitosis), 4.74.

Turning to “MLRFLAPRLLSLQGRTARYSSAAALPSPILNPDIPYNQLFINNEWQDAVSKKTFPTVNPTTGEVIGHVAEGDRADVDRAVKAAREAFRLGSPWRRMDASERGRLLNRLADLVERDRVYLASLETLDNGKPFQESYALDLDEVIKVYRYFAGWADKWHGKTIPMDGQHFCFTRHEPVGVCGQIIPWNFPLVMQGWKLAPALATGNTVVMKVAEQTPLSALYLASLIKEAGFPPGVVNIITGYGPTAGAAIAQHVDVDKVAFTGSTEVGHLIQKAAGDSNLKRVTLELGGKSPSIVLADADMEHAVEQCHEALFFNMGQCCCAGSRTFVEESIYNEFLERTVEKAKQRKVGNPFELDTQQGPQVDKEQFERVLGYIQLGQKEGAKLLCGGERFGERGFFIKPTVFGGVQDDMRIAKEEIFGPVQPLFKFKKIEEVVERANNTRYGLAAAVFTRDLDKAMYFTQALQAGTVWVNTYNIVTCHTPFGGFKESGNGRELGEDGLKAYTEVKTVTIKVPQKNS [ALDH1B1]”, the “solubility change mitosis (log2)” value in the data set on HeLa Kyoto [1] was -0.0523. Besides, in the data set on HeLa Kyoto [2], the “solubility in G1/S (log2)” value was determined as 0.229. Also, the figures for the melting temperature in the data set with HeLa Kyoto [3] (cell cycle stage: G1/S) and in the data set on HeLa Kyoto [3] (cell cycle stage: mitosis) were 52.6 °C and 52.8 °C, respectively. Also, the thermal stability score was -1.97 in the data set with HeLa Kyoto [4] (setting [5]) and -1.54 in the data set with HeLa Kyoto [4] (cell cycle stage: mitosis).

Take “MLRLPTVFRQMRPVSRVLAPHLTRAYAKDVKFGADARALMLQGVDLLADAVAVTMGPKGRTVIIEQSWGSPKVTKDGVTVAKSIDLKDKYKNIGAKLVQDVANNTNEEAGDGTTTATVLARSIAKEGFEKISKGANPVEIRRGVMLAVDAVIAELKKQSKPVTTPEEIAQVATISANGDKEIGNIISDAMKKVGRKGVITVKDGKTLNDELEIIEGMKFDRGYISPYFINTSKGQKCEFQDAYVLLSEKKISSIQSIVPALEIANAHRKPLVIIAEDVDGEALSTLVLNRLKVGLQVVAVKAPGFGDNRKNQLKDMAIATGGAVFGEEGLTLNLEDVQPHDLGKVGEVIVTKDDAMLLKGKGDKAQIEKRIQEIIEQLDVTTSEYEKEKLNERLAKLSDGVAVLKVGGTSDVEVNEKKDRVTDALNATRAAVEEGIVLGGGCALLRCIPALDSLTPANEDQKIGIEIIKRTLKIPAMTIAKNAGVEGSLIVEKIMQSSSEVGYDAMAGDFVNMVEKGIIDPTKVVRTALLDAAGVASLLTTAEVVVTEIPKEEKDPGMGAMGGMGGGMGGGMF [HSPD1]”: the “solubility change mitosis (log2)” value with HeLa Kyoto [1] was found to be 0.129. The “solubility in G1/S (log2)” value with HeLa Kyoto [2] amounted to 0.316. The melting temperature came out at 55.2 °C in the data set with HeLa Kyoto [3] (cell cycle stage: G1/S) and 55 °C in the data set with HeLa Kyoto [3] (cell cycle stage: mitosis). For the same sequence, the thermal stability score in the data set with HeLa Kyoto [4] (setting [5]) was 1.84; with HeLa Kyoto [4] (cell cycle stage: mitosis) it was -0.583.
